Reference: US20230068663A1 (University of Texas, published 2023)

Columns and labels:
LAIR1 on reporter cells [1] = target: T1, LAIR1 on reporter cells (UniProt Q6GTX8 22-165, limits assumed); assay: flow cytometry, reporter cells
T1 sequence (looked up): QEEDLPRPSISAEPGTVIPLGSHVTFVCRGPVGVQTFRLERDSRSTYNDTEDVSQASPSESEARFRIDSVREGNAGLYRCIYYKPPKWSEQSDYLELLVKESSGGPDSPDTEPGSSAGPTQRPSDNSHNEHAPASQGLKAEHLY
Experimental: Binding of LILRB2 monoclonal antibodies was detected using flow cytometry on LILRAs, LILRBs or LAIR1-expressing reporter cells using a Allophycocyanin (APC)-labeled goat anti-human IgG Fc specific secondary antibody. Non: non-stained reporter cells. NEG: cells incubated only with secondary Ab. POS: cells incubated with commercial antibody conjugated with APC or AF647 for the respective LIL or LAIR-1 receptors. The number indicates mean fluorescence intensity (MFI) of APC or AF647.

[2] = target: T2, LILRB2 (antigen in solution, Octet RED 96) (UniProt Q8N423 22-460, limits assumed); assay: BLI (Octet RED 96), antibody on protein A biosensor, LILRB2 in solution
T2 construct: also called LILRB2 solution
Experimental: Affinity measurement of blocking antibodies. Affinities of the 5 blocking antibodies were measured on Octet RED 96 system.

LILRB2-His antigen [3] = target: T3, LILRB2-His antigen (UniProt Q8N423 22-460, limits assumed); assay: ELISA titration on LILRB2 and LILRA1 antigens
T3 construct: Coated on ELISA plates; also used for phage panning; also called LILRB2 antigen; not shown: His tag

LILRB2-His antigen [4] = target: T3, LILRB2-His antigen; assay: indirect ELISA, coated LILRB2-His
Experimental: ELISA binding EC of LILRB2 antibodies. The ELISA binding EC₅₀ of these 24 antibodies were measured by indirect ELISA. […] After incubation, HRP-conjugated goat anti-human Fc secondary antibody was incubated with the plates. The TMB substrate was added for color development and measurement of absorbance at 450 nm.

LILRA5 = target: T4, LILRA5; assay: flow cytometry, reporter cells [cont'd]
T4 construct: also called LILRA5 reporter cells

LILRA6 = target: T5, LILRA6; assay: flow cytometry, reporter cells [cont'd]
T5 construct: also called LILRA6 reporter cells

LAIR1 on reporter cells [5] = target: T1, LAIR1 on reporter cells; assay: flow cytometry, reporter cells [cont'd]
[6] = target: T6, LILRB2 chimeric receptor on LILRB2 reporter cells (extracellular domain of LILRB2 fused with … (UniProt Q8N423 22-460)); assay: flow cytometry, LILRB2 reporter cells
T6 construct: extracellular domain;domain: transmembrane/intracellular domains; associates with DAP12; also called LILRB2-expressing reporter cells
Text: (§1) FIGS. 1A-C. Screening specific monoclonal antibodies for LILRB2. […] Binding of monoclonal antibodies was screened using flow cytometer on LILRB2 reporter cells. Bound antibodies were detected with Allophycocyanin (APC)-labeled goat anti-human IgG secondary antibody. (FIG. 1B) Quantification of binding ability of monoclonal antibodies to LILRB2 reporter cells.
(§2) Screening specific monoclonal antibodies for LILRB2. The inventors employed a stable reporter cell system to detect the binding ability of selected monoclonal antibodies to LILRB2. In this chimeric receptor reporter system, the extracellular domain (ECD) of LILRB2 is fused with transmembrane/intracellular domains of PILRb that associates with the adaptor protein DAP12 containing an immunoreceptor tyrosine-based activation motif. 27 monoclonal antibodies were screened. The LILRB2 reporter cells were incubated with selected monoclonal antibody, then labeled with (APC) goat anti-human IgG secondary antibody. […] The inventors generated LILRBAs and LILRBs reporters stably transduced with each receptor's extracellular domain (ECD).

[7] = target: T7, full extracellular domain (ECD) of LILRB2 fused to Fc fragment of mouse IgG2a (human; mouse, UniProt Q8N423 22-460); assay: ELISA, coated human LILRB2 ECD-mIgG2a Fc [panel A]
T7 construct: extracellular domain; also called B2-ECD; wildtype B2-ECD; not shown: Fc fragment of mouse IgG2a
Text: FIGS. 19A-B. ELISA binding measurement of antibodies to human and non-human primate (cynomolgus monkey, cyno) LILRB2 recombinantly produced in HEK293 cells. (FIG. 19A) ELISA binding to human LILRB2. (FIG. 19B) ELISA binding to cyno-LILRB2. The fusion proteins of the extracellular domain (ECD) of human LILRB2 or NHP-LILRB2 with Fe of mouse IgG2a were used to coat ELISA plates and antibodies were titrated in different concentrations as indicated in the graph.

LAIR1 on reporter cells [8] = target: T1, LAIR1 on reporter cells; assay: flow cytometry, reporter cells; remark: listed apart in the source
[9] = target: T6, LILRB2 chimeric receptor on LILRB2 …; assay: flow cytometry on LILRB2 reporter cells, APC anti-human IgG
Text: as §1, §2

T4 sequence (chain, as listed by the source limits assumed): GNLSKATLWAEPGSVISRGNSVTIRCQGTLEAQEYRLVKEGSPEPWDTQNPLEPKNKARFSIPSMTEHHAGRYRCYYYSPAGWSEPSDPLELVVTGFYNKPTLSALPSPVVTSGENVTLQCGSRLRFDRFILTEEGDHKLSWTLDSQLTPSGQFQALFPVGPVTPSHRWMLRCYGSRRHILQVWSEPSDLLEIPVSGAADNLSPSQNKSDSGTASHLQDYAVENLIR
T5 sequence (chain, as listed by the source limits assumed): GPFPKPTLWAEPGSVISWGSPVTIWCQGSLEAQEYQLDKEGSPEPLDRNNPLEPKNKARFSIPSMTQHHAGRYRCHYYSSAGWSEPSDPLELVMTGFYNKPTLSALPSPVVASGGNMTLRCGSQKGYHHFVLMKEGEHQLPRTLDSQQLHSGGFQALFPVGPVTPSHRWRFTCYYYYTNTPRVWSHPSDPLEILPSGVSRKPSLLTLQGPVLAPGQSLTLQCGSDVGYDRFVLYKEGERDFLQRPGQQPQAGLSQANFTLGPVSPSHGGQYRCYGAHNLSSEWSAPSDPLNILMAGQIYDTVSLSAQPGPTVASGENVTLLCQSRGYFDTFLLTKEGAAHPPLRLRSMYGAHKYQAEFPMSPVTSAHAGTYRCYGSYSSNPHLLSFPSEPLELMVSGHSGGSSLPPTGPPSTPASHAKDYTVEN

B1: HCB2-5 (antibody, V domains shown)
VH: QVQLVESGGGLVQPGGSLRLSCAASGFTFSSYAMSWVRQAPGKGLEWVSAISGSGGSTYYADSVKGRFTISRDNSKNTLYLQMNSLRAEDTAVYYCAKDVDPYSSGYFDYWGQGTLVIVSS
VL: AIQMTQSPSSVSASVGDRVTITCRASQGIGSWLAWYQQKPGKAPKLLISVASSLQSGVPSRFSGSGSGTDFTLTISSLQPEDFATYYCQQANSFPLTFGGGTTVEIK
notes: also called FCB2-5; HCB2-5_HC
binding result (LAIR1 on reporter cells [1]): no binding
Kd [2]: 10.2 nM
koff [2]: 0.00324 s⁻¹
kon [2]: 317000 M⁻¹ s⁻¹

B2: HCB2-10 (antibody, V domains shown)
VH: QVQLVESGGGLVQPGGSLRLSCAASGFTFSNYAMSWVRQAPGKGLEWVSAISGSSISTYYADSVKGRFTISRDNSKNTLYLQMNSLRAEDTAVYYCASSGFGSFDYWGQGTLVTVSS
VL: QPPSVSAAPRQRVTISCSGSSSNIGDNSVNWYQQLPGKAPKLLIYLDDLLPSGVSGRFSGSKSGTSASLVISGLQSEDEADYYCATWDDSLNGVVFGGGTKVTVL
notes: also called HCB2-10_HC; HCB2-10_LC
binding result (LAIR1 on reporter cells [1]): no binding
Kd [2]: 8.67 nM
koff [2]: 0.0061 s⁻¹
kon [2]: 703000 M⁻¹ s⁻¹

B3: B2-12 (antibody, V domains shown)
VH: QVQLVQSGDEVKKAGASVRVSCKASGYTFPDNGISWVRQAPGHGLEWMGWINVDTGYTHYAQRVQDRVVMTTDTSTNTLHMTLRSLTTDDTAVYYCAREIEGVWTAWGQGTLVIVSS
VL: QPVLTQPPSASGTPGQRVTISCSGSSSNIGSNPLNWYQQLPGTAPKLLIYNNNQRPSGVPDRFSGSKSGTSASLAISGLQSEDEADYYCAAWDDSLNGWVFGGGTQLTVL
notes: also called B2-12_HC; B2-12_LC
fold potency of binding to LILRB2 against binding to LILRA1 (LILRB2-His antigen [3]): > 100 fold
EC50 (LILRB2-His antigen [4]): 0.444 nM
binding result (LILRA5): no binding
binding result (LILRA6): no binding
binding result (LAIR1 on reporter cells [5]): no binding
% of cells anti-hIgG APC+ [6]: 25.5%

B4: HCB2-18 (antibody, V domains shown)
VH: QVQLVQSGAEVKKPGSSVKVSCKASGGTFSSYAISWVRQAPGQGLEWMGGIIPIFGTANYAQKFQGRVTITADESTSTAYMELSSLRSEDTAVYYCARGGYQPLDYWGQGTLVIVSS
VL: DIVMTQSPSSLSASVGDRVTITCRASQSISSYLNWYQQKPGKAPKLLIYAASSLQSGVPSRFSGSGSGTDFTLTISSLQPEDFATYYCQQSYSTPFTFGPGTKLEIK
notes: also called HCB2-18_HC; HCB2-18_LC
binding result [7]: binds

B5: HCB2-24 (antibody, V domains shown)
VH: QMQLEQSGAEVKKPGSSVKVSCKASGGTFSSYAISWVRQAPGQGLEWMGGIIPIFGTANYAQKFQGRVTITADKSTSTAYMELSSLRSEDTAVYYCARAGGIHYYDSLDYWGQGTLVTVSS
VL: not shown
notes: also called HCB2-24_HC; HCB2-24_LC
binding result [7]: binds

B6: B2-10 (antibody, V domains shown)
VH: QVQLVQSGGGLVQPGGSLRLSCAASGFTFSSYAMSWVRQAPGKGLEWVSTINDSGGSTYYADSVKGRFTISRDNSKNTLYLQMNSLRAEDTAVYYCAKDHITIFGVAPFDYWGLGTLVTVSS
VL: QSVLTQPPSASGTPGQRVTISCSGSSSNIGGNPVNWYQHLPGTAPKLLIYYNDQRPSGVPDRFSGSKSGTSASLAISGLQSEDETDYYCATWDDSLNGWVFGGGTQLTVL
notes: also called B2-10_HC; B2-10_LC
fold potency of binding to LILRB2 against binding to LILRA1 (LILRB2-His antigen [3]): > 100 fold
EC50 (LILRB2-His antigen [4]): 0.575 nM
% of cells anti-hIgG APC+ [6]: 35.1%

B7: HCB2-27 (antibody, V domains shown)
VH: QVQLVESGGGLVKPGGSLRLSCAASGFTFANAWMGWVRQAPGKGLQWVSHIKPSSSGGRTTDYDAPVKGRFTISRDDSNDTVYLQMNSLKTEDTGVYYCVTGRRVAKTFDFWGQGTTVSVSS
VL: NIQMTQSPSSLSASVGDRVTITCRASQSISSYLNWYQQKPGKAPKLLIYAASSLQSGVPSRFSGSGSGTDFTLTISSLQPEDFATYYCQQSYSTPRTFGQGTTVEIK
notes: also called HCB2-27_HC; HCB2-27_LC
binding result [7]: binds

B8: B2-8 (antibody, V domains shown)
VH: QVQLVQSGAEVKKPGSSVKVSCKASGGTFSSYAISWVRQAPGQGLEWMGGIIPIFGTANYAQKFQGRVTITADESTSTAYMELSSLRSEDTAVYYCARVAVADTFFDYWGQGTLVTVSS
VL: QPVLTQPASVSGSPGQSITISCTGTSSDVGGYNYVSWYQQHPGKAPKLMIYDVSNRPSGVSNRFSGSKSGNTASLTISGLQAEDEADYYCSSYTSSSTPYVFGTGTKVTVL
notes: also called B2-8_HC; B2-8_LC
binding result (LAIR1 on reporter cells [8]): no binding
EC50 (LILRB2-His antigen [4]): 0.557 nM
% of cells anti-hIgG APC+ [6]: 24.8%

B9: B2-24 (antibody, V domains shown)
VH: QVQLVESGGGLVKPGGSLRLSCAASGFTFSDYYMSWIRQAPGKGLEWVSYISSSSSYTNYADSVKGRFTISRDNAKNSLYLQMNSLRAEDTAVYYCARVGDLDAFDIWGQGTMVTVSS
VL: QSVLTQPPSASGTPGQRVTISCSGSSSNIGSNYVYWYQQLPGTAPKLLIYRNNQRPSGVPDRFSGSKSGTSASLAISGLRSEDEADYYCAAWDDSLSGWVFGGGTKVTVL
notes: also called B2-24_HC; B2-24_LC
binding result (LAIR1 on reporter cells [8]): no binding
EC50 (LILRB2-His antigen [4]): 5.06 nM
% of cells anti-hIgG APC+ [6]: 13%

B10: B2-25 (antibody, V domains shown)
VH: QVQLVESGGGLVKPGGSLRLSCAASGFTFSDHYMSWIRQAPGKGLEWVSYITTTGSTMSYADSVKGRFTISRDNSKNSLHLQLSSLRAEDTAVYYCARDSIHVDGAFDIWGQGTMVTVSS
VL: SYELTQPPSVSVAPGQTARITCGGNNIGSKSVHWYQQKPGQAPVLVVYDDSDRPSGIPERFSGSNSGNTATLTISRVEAGDEADYYCQVWDSSSDHWVFGGGTKLTVL
notes: also called B2-25_HC; B2-25_LC
EC50 (LILRB2-His antigen [4]): 1.73 nM
binding result (LAIR1 on reporter cells [5]): no binding
% of cells anti-hIgG APC+ [6]: 39.2%

B11: HCB2-15 (antibody, V domains shown)
VH: QVQMVESGGDLVQPGQSLRLSCVTSGFPFADYAMSWFRQAPGQRPEWIGYIKSKTRDGTTKYAESLRGRFTISRDDSKSIAYLQMNNLKREDTAVYYCALGGAAALWGPGTLVSVSS
VL: QPPSVSGAPGQRVTISCAGSSSNIGAGYGVHWYQHLPGTAPKLLIYGDNNRPSGVPYRFSGSKSGTSASLAITGLQAEDEADYFCQSYDSSLGVGVFGGGTKVTVL
notes: also called HCB2-15_HC; HCB2-15_LC
binding result [7]: binds

B12: HCB2-17 (antibody, V domains shown)
VH: QVQLVQSGAEVKKPGSSVKVSCKASGGTFSSYAISWVRQAPGQGLEWMGGIIPIFGTANYAQKFQGRVTITADESTSTAYMELSSLRSEDTAVYYCAISSGYYYNPFDYWGQGTLVTVSS
VL: not shown
notes: also called HCB2-17_HC; HCB2-17_LC
binding result [7]: binds

B13: B2-18 (antibody, V domains shown)
VH: QVQLVQSGAEVKKPGASVKVSCKASGYTFTRYGFSWVRQAPGQGLEWMGWISGYNGNTKYAQKFQGRVTMTTDTSTSTAYMELRSLTSNDTAVYYCARDRGSGYLEYWGPGTLVTVSS
VL: DVQMTQSPSSLSASVGERVTLTCRASQGIYSSLAWYQQKPGKAPKLLLYGTSQLERGVPSRFSGSGSGTDYTLTISSLQPEDSATYYCQQHYNLPITFGQGTRLEIK
notes: also called B2-18_HC; B2-18_LC
fold potency of binding to LILRB2 against binding to LILRA1 (LILRB2-His antigen [3]): > 100 fold
EC50 (LILRB2-His antigen [4]): 0.355 nM
binding result (LILRA5): no binding
binding result (LILRA6): no binding
binding result (LAIR1 on reporter cells [5]): no binding
% of cells anti-hIgG APC+ [6]: 75.6%
percent of LILRB2 reporter cells labeled [9]: > 95%
